Assay results taken from patent US20040092720A1 (US Dept. of Health and Human Services, published 2004).
Like-named read-outs stand apart in the source and are kept apart here.

Tests used:
recombinant human IL-6 [1] = biological target: T1, recombinant human IL-6 (human, UniProt P05231 30-212, labeled with radioactive iodine); assay: radioiodinated IL-6 on peptide array
T1 construct: Labeled probe in solution, added to wells that carry the synthetic peptides; also called IL-6 ligand; Interleukin-6
Description: Synthetic peptide arrays were constructed in 96-well microtiter plates in accordance with the method set forth in WO 91/02714 (Saxinger), and used to test the binding of recombinant human IL-6 that had been labeled with radioactive iodine (radiolabeling by standard methods). After incubating the radiolabeled IL-6 ligand in a well with each synthetic peptide, a washing step was performed to remove unbound label, and the relative level of radioactivity remaining in each well of the plate was evaluated to determine the relative affinity of each peptide for IL-6 ligand.

recombinant human IL-6 [2] = biological target: T1, recombinant human IL-6; assay: radioiodinated IL-6 on peptide array; remark: listed apart in the source

| Binder | Counts/minute bound (recombinant human IL-6 [1]) | Counts/minute bound (recombinant human IL-6 [2]) |
| --- | --- | --- |
| RSTPSLTTKAVLLVRKFQNS [Peptide B18] | 13000 counts/minute | – |
| VLLVRKFQNS [Peptide B29] | 9100 counts/minute | – |
| SDWSEEASGITYEDRPSKAPSFWY [Peptide E32] | – | 1160 counts/minute |
| PSLTTKAVLLVRKFQNS [Peptide B21] | 13300 counts/minute | – |
| TYEDRPSKAPSFWYKIDPSHTQGY [Peptide E33] | – | 1220 counts/minute |
| YRTKDASTWSQIPPEDTASTRSSF [Peptide E27] | – | 1160 counts/minute |
| KMRCEWDGGRETHLETNFTLKSEW [Peptide E15] | – | 1570 counts/minute |
| PRSTPSLTTKAVLLVRKF [Peptide B4] | 4690 counts/minute | – |
| HFTIPKEQYTIINRTASSVTFTDI [Peptide E8] | – | 1140 counts/minute |
| TPSLTTKAVLLVRKFQNS [Peptide B20] | 12900 counts/minute | – |
| MLTLQTWVVQALFIFLTTESTGEL [Peptide E1] | – | 3360 counts/minute |
| PRSTPSL (also called PRSTPSL) [Peptide B15] | 985 counts/minute | – |
| STPSLTTKAVLLVRKFQNS [Peptide B19] | 12200 counts/minute | – |
| PRSTPSLT [Peptide B14] | 930 counts/minute | – |
| AVLLVRKFQNS [Peptide B28] | 9070 counts/minute | – |
| IINRTASSVTFTDIASLNIQLTCN [Peptide E9] | – | 1630 counts/minute |
| LEQNVYGITIISGLPPEKPKNLSC [Peptide E12] | – | 1670 counts/minute |
| PRSTPSLTTKAVLLVR [Peptide B6] | 4360 counts/minute | – |
| QIPPEDTASTRSSFTVQDLKPFTE [Peptide E28] | – | 1200 counts/minute |
| INSEELSSILKLTWTNPSIKSVII [Peptide E24] | – | 1010 counts/minute |
| KSEWATHKFADCKAKRDTPTSCTV [Peptide E17] | – | 1410 counts/minute |
| PRSTPSLTTKAV [Peptide B10] | 1220 counts/minute | – |

| Binder | Counts/minute bound (recombinant human IL-6 [1]) | Counts/minute bound (recombinant human IL-6 [2]) |
| --- | --- | --- |
| SVIILKYNIQYRTKDASTWSQIPP [Peptide E26] | – | 2830 counts/minute |
| LVRKFQNS [Peptide B31] | 2520 counts/minute | – |
| PRSTPSLTTKAVL [Peptide B9] | 1400 counts/minute | – |
| ISGLPPEKPKNLSCIVNEGKKMRC [Peptide E13] | – | 1200 counts/minute |
| LLVRKFQNS [Peptide B30] | 7200 counts/minute | – |
| HINFDPVYKVKPNPPHNLSVINSE [Peptide E22] | – | 1730 counts/minute |
| AAGSHPSRWAGMARRLLLRSV (alanine-scan variant of the domain I 21-mer) [Peptide A42] | 12300 counts/minute | – |
| AAGSHPSRWAGAGRRLLLRSV (alanine-scan variant of the domain I 21-mer) [Peptide A43] | 13500 counts/minute | – |
| AAGSHPSRWAAMGRRLLLRSV (alanine-scan variant of the domain I 21-mer) [Peptide A44] | 11900 counts/minute | – |
| AAGSHPARWAGMGRRLLLRSV (alanine-scan variant of the domain I 21-mer) [Peptide A47] | 11300 counts/minute | – |
| AAGSHPSRAAGMGRRLLLRSV (alanine-scan variant of the domain I 21-mer) [Peptide A45] | 8040 counts/minute | – |
| AAGSHPSAWAGMGRRLLLRSV (alanine-scan variant of the domain I 21-mer) [Peptide A46] | 9520 counts/minute | – |
| KEKCMDYFHVNANYIVWKTNHFTI [Peptide E6] | – | 1440 counts/minute |
| PRSTPSLTTKAVLLV [Peptide B7] | 3400 counts/minute | – |
| TTKAVLLVRKFQNS [Peptide B24] | 7010 counts/minute | – |
| PFTEYVFRIRCMKEDGKGYWSDWS [Peptide E30] | – | 1260 counts/minute |
| NANYIVWKTNHFTIPKEQYTIINR [Peptide E7] | – | 1330 counts/minute |
| ISPESPVVQLHSNFTAVCVLKEKC [Peptide E4] | – | 1500 counts/minute |
| DCKAKRDTPTSCTVDYSTVYFVNI [Peptide E18] | – | 1550 counts/minute |
| LTTKAVLLVRKFQNS [Peptide B23] | 12200 counts/minute | – |
| PRSTPSLTTKAVLLVRKFQ [Peptide B3] | 7080 counts/minute | – |
| VRKFQNS (also called VRKFQNS) [Peptide B32] | 1180 counts/minute | – |

| Binder | Counts/minute bound (recombinant human IL-6 [1]) | Counts/minute bound (recombinant human IL-6 [2]) |
| --- | --- | --- |
| ETHLETNFTLKSEWATHKFADCKA [Peptide E16] | – | 1040 counts/minute |
| TGELLDPCGYISPESPVVQLHSNF [Peptide E3] | – | 1300 counts/minute |
| ALFIFLTTESTGELLDPCGYISPE [Peptide E2] | – | 1530 counts/minute |
| SFWYKIDPSHTQGYRTVQLVWKTL [Peptide E34] | – | 1140 counts/minute |
| FTDIASLNIQLTCNILTFGQLEQN [Peptide E10] | – | 3380 counts/minute |
| SCTVDYSTVYFVNIEVWVEAENAL [Peptide E19] | – | 3320 counts/minute |
| KPNPPHNLSVINSEELSSILKLTW [Peptide E23] | – | 1410 counts/minute |
| PRSTPSLTT [Peptide B13] | 1050 counts/minute | – |
| ENALGKVTSDHINFDPVYKVKPNP [Peptide E21] | – | 1120 counts/minute |
| PRSTPSLTTKAVLLVRKFQN [Peptide B2] | 7930 counts/minute | – |
| RSSFTVQDLKPFTEYVFRIRCMKE [Peptide E29] | – | 1320 counts/minute |
| CMKEDGKGYWSDWSEEASGITYED [Peptide E31] | – | 1730 counts/minute |
| PRSTPS (also called PRSTPS) [Peptide B16] | 1020 counts/minute | – |
| HSNFTAVCVLKEKCMDYFHVNANY [Peptide E5] | – | 1290 counts/minute |
| PRSTPSLTTKAVLLVRK [Peptide B5] | 3960 counts/minute | – |
| KLTWTNPSIKSVIILKYNIQYRTK [Peptide E25] | – | 10300 counts/minute |
| PRSTPSLTTK [Peptide B12] | 1310 counts/minute | – |
| FVNIEVWVEAENALGKVTSDHINF [Peptide E20] | – | 1410 counts/minute |
| PRSTPSLTTKA [Peptide B11] | 1240 counts/minute | – |
| KAVLLVRKFQNS [Peptide B27] | 5600 counts/minute | – |
| NLSCIVNEGKKMRCEWDGGRETHL [Peptide E14] | – | 1170 counts/minute |
